Ends that are not written are not given here. Peptide text beside a SMILES is read from it.
T1: FKBP51 (Homo sapiens, UniProt Q13451)
T1 sequence (Q13451 1-457): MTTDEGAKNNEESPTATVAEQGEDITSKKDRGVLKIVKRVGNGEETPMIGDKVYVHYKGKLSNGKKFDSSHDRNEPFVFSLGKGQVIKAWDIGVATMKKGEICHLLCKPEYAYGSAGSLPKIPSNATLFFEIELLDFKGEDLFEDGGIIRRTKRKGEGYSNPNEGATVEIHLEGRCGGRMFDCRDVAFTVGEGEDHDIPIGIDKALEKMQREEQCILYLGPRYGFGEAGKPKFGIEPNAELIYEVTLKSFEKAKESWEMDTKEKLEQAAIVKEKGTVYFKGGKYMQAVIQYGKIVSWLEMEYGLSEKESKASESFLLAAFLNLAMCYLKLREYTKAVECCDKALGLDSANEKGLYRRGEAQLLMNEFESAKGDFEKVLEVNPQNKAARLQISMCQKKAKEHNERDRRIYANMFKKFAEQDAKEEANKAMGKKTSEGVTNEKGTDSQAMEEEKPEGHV

T2: AIP (Homo sapiens, UniProt O00170)
T2 sequence (O00170 1-330): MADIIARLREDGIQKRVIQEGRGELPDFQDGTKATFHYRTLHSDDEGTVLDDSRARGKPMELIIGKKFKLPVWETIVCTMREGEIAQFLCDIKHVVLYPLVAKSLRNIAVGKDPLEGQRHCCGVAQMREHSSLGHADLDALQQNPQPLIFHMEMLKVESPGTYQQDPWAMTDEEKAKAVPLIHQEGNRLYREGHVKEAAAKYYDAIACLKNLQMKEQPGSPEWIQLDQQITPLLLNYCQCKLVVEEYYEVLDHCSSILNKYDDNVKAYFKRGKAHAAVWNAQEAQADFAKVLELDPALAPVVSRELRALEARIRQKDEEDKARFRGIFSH

T3: FKBP51 (human, UniProt Q13451 1-457)
T3 construct: GST-tag-free protein spotted on nitrocellulose; also called immobilized FKBP51; source: E. coli BL21, purified as GST fusion (GSTrap), GST removed with PreScission protease
T3 sequence (looked up): T1 sequence (Q13451 1-457)

T4: AIP (human, UniProt O00170 1-330)
T4 construct: GST-tag-free protein spotted on nitrocellulose; also called nitrocellulose-immobilized AIP; source: E. coli BL21, purified as GST fusion (GSTrap), GST removed with PreScission protease
T4 sequence (looked up): T2 sequence (O00170 1-330)

T5: Tom70(94–608) (UniProt O94826 94-608)
T5 construct: mitochondrial import receptor Tom70, residues 94-608 as the primers are named; the reverse primer codes for ...KPPTL-stop; source: dot blots used GST-tag-free proteins
T5 sequence (looked up): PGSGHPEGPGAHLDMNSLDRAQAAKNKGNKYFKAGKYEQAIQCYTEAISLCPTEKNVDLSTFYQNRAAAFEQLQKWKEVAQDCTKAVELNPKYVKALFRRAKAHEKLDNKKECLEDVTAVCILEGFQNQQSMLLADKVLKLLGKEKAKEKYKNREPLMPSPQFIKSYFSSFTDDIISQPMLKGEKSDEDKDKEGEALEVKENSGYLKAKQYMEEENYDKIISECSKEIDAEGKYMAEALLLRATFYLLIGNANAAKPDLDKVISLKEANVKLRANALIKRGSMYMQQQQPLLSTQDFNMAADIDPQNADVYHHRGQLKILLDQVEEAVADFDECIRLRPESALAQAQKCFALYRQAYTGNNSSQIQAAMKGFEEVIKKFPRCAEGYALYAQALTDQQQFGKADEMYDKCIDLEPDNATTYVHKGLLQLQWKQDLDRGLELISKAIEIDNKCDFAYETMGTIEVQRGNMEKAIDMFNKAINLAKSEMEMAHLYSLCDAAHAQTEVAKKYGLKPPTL

B1: Hsp90β peptide (peptide)
peptide: EDASRMEEVD
notes: the 10 C-terminal residues of Hsp90β; also called Hsp90 peptide; Hsp90β-derived peptide; source: synthetic peptide (Peptide 2.0, Inc.), > 95% purity
B2: Usp19 peptide (peptide)
peptide: PTYSNMEEVD
notes: source: synthetic peptide (Peptide 2.0, Inc.), > 95% purity
B3: DNAAF2 peptide (peptide)
peptide: FQNSLLYDLD
notes: the 10 C-terminal residues of DNAAF2; source: synthetic peptide (Peptide 2.0, Inc.), > 95% purity
B4: NADSYN1 peptide (peptide)
peptide: AEPQSLDGVD
notes: the 10 C-terminal residues of NADSYN1; source: synthetic peptide (Peptide 2.0, Inc.), > 95% purity
B5: Hsp105 peptide (peptide)
peptide: EKNSVNMDLD
notes: the 10 C-terminal residues of Hsp105; source: synthetic peptide (Peptide 2.0, Inc.), > 95% purity
B6: Tom20 peptide (peptide)
peptide: AQSLAEDDVE
notes: the 10 C-terminal residues of Tom20; also called Tom20 label-free peptide; unlabeled Tom20 peptide; source: synthetic peptide (Peptide 2.0, Inc.), > 95% purity
B7: p23 peptide (peptide)
peptide: SDDEKMPDLE
notes: the 10 C-terminal residues of p23 / PTGES3; also called p23 C-terminal peptide; source: synthetic peptide (Peptide 2.0, Inc.), > 95% purity
B8: HRP-conjugated Hsp90β peptide (peptide)
peptide: EDASRMEEVD
modifications: also: HRP-conjugated
notes: the 10 C-terminal residues of Hsp90β; also called HRP–Hsp90; Hsp90 peptide conjugated to HRP

Experiments:
FKBP51 [1] = biological target: T1, FKBP51; experiment: Dot-blot competition assay: HRP-conjugated peptide vs unlabeled peptide on immobilized FKBP51
Procedure: (§1) Full‐length cDNA clones for respective proteins were obtained from IMAGE consortium (SourceBioScience, Nottingham, UK) and PCR amplified with forward and reverse primers (Table 1) containing overhangs with appropriate restriction sites and cloned into pGEX6 vectors (GE Healthcare, Uppsala, Sweden). Inserts were sequence verified, and the plasmids were transformed into BL21 Escherichia coli strain. Glutathione‐S‐transferase (GST) fusion proteins were purified from 1 L overnight culture after 2 h of induction with 1 mM IPTG. Cells were pelleted, resuspended in 1× PBS and sonicated 3 × 20 s on ice. EDTA and protease inhibitor cocktail were added to prevent proteolysis. The suspension was centrifuged for 30 min at 50 000 g to remove cell debris, and supernatant was loaded onto a 1 mL GSTrap™ 4B column (GE Healthcare). After column washing with 30 mL PBS, GST fusion proteins were eluted with 2.5 mL 10 mM glutathione in PBS. Eluate was passed through a PD‐10 column (GE Healthcare) to remove free glutathione. To prepare GST‐tag‐free proteins, we performed overnight cleavage at 4 °C with PreScission protease (GE Healthcare) followed by passage through a GSTrap column to remove free GST protein. Average yield from 1 L starting culture was 1–5 mg of purified proteins. Protein‐containing fractions were collected, checked with SDS/PAGE and kept at −20 °C.
(§2) Peptides were dissolved in HEPES‐KOH buffer pH 7.2 at concentration of 1 mg·mL^−1 and incubated with equimolar amounts of activated horseradish peroxidase (HRP) (Lightning‐link® HRP labeling kit cat. 701‐004, from Innova Biosciences) for 5 min. Reaction was quenched with 0.1 M Tris/HCl, pH 7.5 for 10 min and the products were passed through PD‐10 columns (GE Healthcare). Dot‐blot experiments were performed using GST‐tag‐free proteins applied to the nitrocellulose membrane. After blocking of membrane with 3% BSA in TBS‐T buffer for 1 h and subsequent wash with TBS‐T, HRP‐conjugated peptides (1 × 500 times dilution) were applied and incubated for 1 h. After subsequent washing (3 × 10 min, TBS‐T), membrane was dried and signals were quantified using a digital Fujifilm LAS3000 imager and LAS3000 software. In competition experiments, increasing concentrations of unlabeled peptides were co‐incubated with peptide–HRP conjugates.
(§3) Each peptide was separately coupled to HRP.

AIP [2] = biological target: T2, AIP; experiment: Dot-blot competition assay: HRP-conjugated peptide vs unlabeled peptide on nitrocellulose-immobilized AIP
Procedure: as §1, §2, §3

Tom70 = experiment: Dot-blot assay of Tom70 with HRP-conjugated Hsp90 and Tom20 peptides in presence of unconjugated peptides; type: binding, human; conditions: 20 μM unconjugated peptide
Procedure: In subsequent experiments, non‐fluorescent peptides were used. […] Cell impermeable Hsp90 peptide served as a treatment control.
Figure 6 In vitro and in situ analysis of interactions of 10‐amino‐acid peptides corresponding to C termini of Hsp90 and Tom20 with Tom70. (A) Dot‐blot assay of interactions between Tom70 and HRP‐conjugated 10‐amino‐acid peptides corresponding to C termini of Hsp90 and Tom20 in the presence of 20 μM of unconjugated peptides. (B) Fluorescence imaging of HEK293 cells in the presence of 20 μM of fluorescein‐labeled Hsp90, R9–Hsp90, Tom20 and R9–Tom20 peptides. (C) Inhibition of Tom20–Tom70 and Hsp90–Tom70 interactions with R9–Hsp90 and R9–Tom20 in HEK293 cells measured by PLA. n = 3. Graphs were created and SD values were calculated using PRISM, version 7.02. *P‐value < 0.05 compared to control; comparisons are based on one‐way ANOVA. (D) Inhibition of Tom20–Tom70 and Hsp90–Tom70 interactions with R9–Hsp90 and R9–Tom20 in HEK293 cells measured by mammalian two‐hybrid assay. n = 3. Graphs were created and SD values were calculated using PRISM, version 7.02. *P‐value < 0.05 compared to control; comparisons are based on one‐way ANOVA.

FKBP51 [3] = biological target: T3, FKBP51; experiment: far-Western, overlay or dot blot; GST-tag-free FKBP51 or AIP on nitrocellulose, blocked with 3% BSA in TBS-T, probed 1 h with HRP-conjugated peptide, alone or with increasing concentrations of unlabeled peptide; luminescence quantified; IC50 estimated; n = 3; conditions: both partners purified
AIP [4] = biological target: T4, AIP; experiment: as above; conditions: both partners purified
Tom70(94–608) = biological target: T5, Tom70(94–608); experiment: far-Western, overlay or dot blot; Tom70 on nitrocellulose, probed with HRP-conjugated Hsp90 or Tom20 peptide in the presence of 20 μM of unconjugated peptides; conditions: both partners purified

Molecule | IC50 (FKBP51 [1]) | IC50 (AIP [2]) | IC50 (FKBP51 [3]) | IC50 (AIP [4]) | also measured
CSCC[C@H](NC(=O)[C@H](CC(N)=O)NC(=O)[C@H](CO)NC(=O)[C@H](Cc1ccc(O)cc1)NC(=O)[C@@H](NC(=O)[C@@H]1CCCN1)[C@@H](C)O)C(=O)N[C@@H](CCC(=O)O)C(=O)N[C@@H](CCC(=O)O)C(=O)N[C@H](C(=O)N[C@@H](CC(=O)O)C(=O)O)C(C)C [Usp19] (H-PTYSNMEEVD-OH) | 19.7 ± 2.55 µM | 18.8 ± 2.78 µM | – | – | –
CC(C)C[C@H](NC(=O)[C@H](CO)NC(=O)[C@H](CCC(N)=O)NC(=O)[C@@H]1CCCN1C(=O)[C@H](CCC(=O)O)NC(=O)[C@H](C)N)C(=O)N[C@@H](CC(=O)O)C(=O)NCC(=O)N[C@H](C(=O)N[C@@H](CC(=O)O)C(=O)O)C(C)C [NADSYN1] (H-AEPQSLDGVD-OH) | 28.2 ± 1.96 µM | 9.74 ± 0.72 µM | – | – | –
CC[C@H](C)[C@H](NC(=O)[C@@H](NC(=O)[C@@H]1CCCN1C(=O)CNC(=O)[C@H](CO)NC(=O)CN)[C@@H](C)O)C(=O)N[C@@H](CCC(=O)O)C(=O)N[C@@H](CCC(=O)O)C(=O)N[C@H](C(=O)N[C@@H](CC(=O)O)C(=O)O)C(C)C [Hsp70.1] | 27.6 ± 2.85 µM | 10.6 ± 1 µM | – | – | –
CC(C)C[C@H](NC(=O)[C@H](CC(=O)O)NC(=O)[C@H](Cc1ccc(O)cc1)NC(=O)[C@H](CC(C)C)NC(=O)[C@H](CC(C)C)NC(=O)[C@H](CO)NC(=O)[C@H](CC(N)=O)NC(=O)[C@H](CCC(N)=O)NC(=O)[C@@H](N)Cc1ccccc1)C(=O)N[C@@H](CC(=O)O)C(=O)O [DNAAF2] (H-FQNSLLYDLD-OH) | 25.6 ± 1.54 µM | 8.47 ± 0.43 µM | – | – | –
CSCC[C@H](NC(=O)[C@H](CCCCN)NC(=O)[C@H](CCC(=O)O)NC(=O)[C@H](CC(=O)O)NC(=O)[C@H](CC(=O)O)NC(=O)[C@@H](N)CO)C(=O)N1CCC[C@H]1C(=O)N[C@@H](CC(=O)O)C(=O)N[C@@H](CC(C)C)C(=O)N[C@@H](CCC(=O)O)C(=O)O [p23] (H-SDDEKMPDLE-OH) | 189 ± 12.9 µM | 55 ± 4.51 µM | – | – | –
CSCC[C@H](NC(=O)[C@H](CC(N)=O)NC(=O)[C@@H](NC(=O)[C@H](CO)NC(=O)[C@H](CC(N)=O)NC(=O)[C@H](CCCCN)NC(=O)[C@@H](N)CCC(=O)O)C(C)C)C(=O)N[C@@H](CC(=O)O)C(=O)N[C@@H](CC(C)C)C(=O)N[C@@H](CC(=O)O)C(=O)O [Hsp105] (H-EKNSVNMDLD-OH) | 42.8 ± 4.16 µM | 8.64 ± 0.8 µM | – | – | –
CC(C)C[C@H](NC(=O)[C@H](CO)NC(=O)[C@H](CCC(N)=O)NC(=O)[C@H](C)N)C(=O)N[C@@H](C)C(=O)N[C@@H](CCC(=O)O)C(=O)N[C@@H](CC(=O)O)C(=O)N[C@@H](CC(=O)O)C(=O)N[C@H](C(=O)N[C@@H](CCC(=O)O)C(=O)O)C(C)C [Tom20] (H-AQSLAEDDVE-OH) | 132 ± 12.6 µM | 35.3 ± 3.2 µM | – | – | competition with HRP-conjugated Hsp90 peptide for Tom70 binding (Tom70): unable to disrupt
B1 | – | – | 16 µM | 18 µM | binding result (Tom70(94–608)): binds
B2 | – | – | 19 µM | 9 µM | –
B3 | – | – | 25 µM | 8 µM | –
B4 | – | – | 28 µM | 18 µM | –
B5 | – | – | 40 µM | 6 µM | –
B6 | – | – | 183 µM | 62 µM | –
B7 | – | – | 291 µM | 47 µM | –
B8 | – | – | – | – | binding result (Tom70(94–608)): binds
AQSLAEDDVE (also: HRP-conjugated, the 10 C-terminal residues of Tom20) [HRP-conjugated Tom20 peptide] | – | – | – | – | binding result (Tom70(94–608)): binds

Source: paper PMC6212638, “In silico identification and biochemical characterization of the human dicarboxylate clamp TPR protein interaction network” (FEBS Open Bio, 2018)
